Measurements as given in article PMC8680157.

Tests used:
[1] = target: fluorescently labelled nucleosome core particle (NCP), non-ubiquitylated (human) (UniProt P68431); experiment: fluorescence polarisation
[2] = target: fluorescently labelled nucleosome core particle ubiquitylated at H2A K13 and K15 (human) (UniProt P68431); experiment: fluorescence polarisation

Chain of GST-tagged BARD1 (ARD–BRCT), residues 415–777, wild type (Q99728 415-777): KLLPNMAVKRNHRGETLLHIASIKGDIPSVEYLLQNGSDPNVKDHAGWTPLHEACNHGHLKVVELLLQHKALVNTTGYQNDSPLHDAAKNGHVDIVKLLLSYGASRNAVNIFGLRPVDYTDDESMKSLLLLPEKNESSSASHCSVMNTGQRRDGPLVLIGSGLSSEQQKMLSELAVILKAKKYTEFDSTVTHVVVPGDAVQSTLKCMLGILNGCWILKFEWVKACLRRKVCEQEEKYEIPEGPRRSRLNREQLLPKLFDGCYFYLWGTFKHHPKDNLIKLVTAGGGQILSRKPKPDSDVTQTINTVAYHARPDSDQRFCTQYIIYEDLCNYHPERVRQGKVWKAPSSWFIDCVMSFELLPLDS

Substance | Kd [1] [nM] | Kd [2] [nM]
BRCA1^R–BARD1^Long, BRCA1 (residues 1–100)–BARD1 (residues 26–777) (from UniProt P38398 1-100; Q99728 26-777) (enzyme) | 60 | 20
BRCA1^R–BARD1^R, fusion of BRCA1 (residues 1–100) and BARD1 (residues 26–122) (from UniProt P38398 1-100; Q99728 26-122) (enzyme) | 8000 | 
GST-tagged BARD1 (ARD–BRCT), residues 415–777, wild type (from UniProt Q99728 415-777) (domain or fragment) |  | 200
